Laboratory results: patent US20250213713A1, “Antibody-Drug Conjugates Targeting uPARAP Comprising Exatecan Derivatives” (ADCENDO APS, priority 2022, published 2025)

T1: soluble full-length uPARAP (UniProt Q9UBG0 31-1414, limits assumed)
T1 construct: also called CD280
T1 sequence (looked up): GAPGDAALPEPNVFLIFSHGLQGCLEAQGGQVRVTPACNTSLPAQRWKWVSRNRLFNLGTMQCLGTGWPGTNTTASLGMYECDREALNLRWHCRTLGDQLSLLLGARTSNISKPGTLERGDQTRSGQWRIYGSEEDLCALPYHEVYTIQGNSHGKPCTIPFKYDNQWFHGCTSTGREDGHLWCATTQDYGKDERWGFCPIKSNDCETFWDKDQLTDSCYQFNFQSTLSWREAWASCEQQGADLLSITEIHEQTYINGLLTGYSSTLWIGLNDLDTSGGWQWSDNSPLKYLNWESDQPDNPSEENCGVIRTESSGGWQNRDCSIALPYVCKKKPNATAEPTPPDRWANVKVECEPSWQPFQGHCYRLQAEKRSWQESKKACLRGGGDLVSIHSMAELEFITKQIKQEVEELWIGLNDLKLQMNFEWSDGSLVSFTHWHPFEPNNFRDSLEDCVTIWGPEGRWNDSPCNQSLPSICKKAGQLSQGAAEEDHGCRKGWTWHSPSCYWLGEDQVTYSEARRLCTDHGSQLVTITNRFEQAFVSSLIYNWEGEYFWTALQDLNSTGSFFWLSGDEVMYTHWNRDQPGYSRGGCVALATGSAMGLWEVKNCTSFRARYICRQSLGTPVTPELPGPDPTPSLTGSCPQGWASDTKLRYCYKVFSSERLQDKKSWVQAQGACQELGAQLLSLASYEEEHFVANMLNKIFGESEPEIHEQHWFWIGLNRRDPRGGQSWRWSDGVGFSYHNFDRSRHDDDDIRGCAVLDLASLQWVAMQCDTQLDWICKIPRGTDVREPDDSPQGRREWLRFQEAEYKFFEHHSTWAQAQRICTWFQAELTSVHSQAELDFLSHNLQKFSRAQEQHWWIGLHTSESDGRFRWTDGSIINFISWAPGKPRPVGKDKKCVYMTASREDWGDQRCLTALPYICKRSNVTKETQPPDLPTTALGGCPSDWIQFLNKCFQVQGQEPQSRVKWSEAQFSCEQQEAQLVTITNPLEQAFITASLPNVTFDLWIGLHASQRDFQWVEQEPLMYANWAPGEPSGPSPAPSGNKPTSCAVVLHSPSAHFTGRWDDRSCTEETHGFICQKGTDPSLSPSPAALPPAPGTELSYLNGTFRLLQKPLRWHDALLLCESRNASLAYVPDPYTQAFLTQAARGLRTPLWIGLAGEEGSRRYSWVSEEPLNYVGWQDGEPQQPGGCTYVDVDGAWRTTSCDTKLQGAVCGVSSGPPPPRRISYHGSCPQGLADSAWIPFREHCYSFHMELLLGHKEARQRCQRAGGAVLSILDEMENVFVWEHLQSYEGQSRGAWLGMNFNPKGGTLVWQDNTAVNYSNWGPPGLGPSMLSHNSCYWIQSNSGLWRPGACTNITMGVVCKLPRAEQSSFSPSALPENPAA

B1: 980.2 LC0HC0 (chimeric antibody: variable domains of murine 9b7 fused to human IgG1 kappa constant regions) (antibody, V domains shown)
VH: QVHLVQSGPELKKPGETVKISCKASGYIFIDYGMHWVKQAPGKGLKWMGSINTKSGVSTYAAEFKGRFAFSLETSASTAYLQINNLKNEDTATYFCARPPYYSQYGSYWGQGTLVTVSA
VL: DIVMTQSQKFMSTSVGDRVSVTCKASQNVDTYVVWYQQKPGQSPKPLIYSASSRFSGVPDRFTGTGSGTDFTLTINNVQSEDLAEYFCQQYHNSPLTFGGGTKLEIKR
notes: Complete IgG1 kappa, expressed in CHO cells; captured by anti-human Fc in the SPR assay; also called parental antibody
B2: 980.2 LC4HC3 (humanized 9b7 antibody) (antibody, human IgG1, kappa, V domains shown)
VH: QVQLVQSGAEVKKPGASVKVSCKASGYIFIDYGMHWVRQAPGQRLEWMGSINTKSGVSTYAAEFKGRVTIYSDTSASTAYMELSSLRSEDTAVYFCARPPYYSQYGSYWGQGTLVTVSS
VL: EIVMTQSPDSLAVSLGERATINCKASQNVDTYVVWYQQKPGQPPQPLIYSASSRFSGVPDRFSGSGSGTDFTLTISSLQAEDVAIYYCQQYHNSPLTFGGGTKVEIKR
notes: Complete IgG1 kappa, expressed in CHO cells; captured by anti-human Fc in the SPR assay

Assays:
[1] = test system: JIMT-1 cells; experiment: Inhibition of in vitro proliferation of tumor cells (CTG), JIMT-1; assay type: cell-based; settings: read-out: JIMT-1 IC50; Table 8, 6 days of culture
Procedure: (§1) To test the inhibitory activity of the pharmaceutical compounds on the in vitro proliferation of NCI-N87, JIMT-1 and MBA-MB-231 tumor cells. The cells were treated with the compounds at different concentrations in vitro, and after 6 days of culture, the proliferation of cells was detected using the CTG (CellTiter-Glo® Luminescent Cell Viability Assay, Promega, Cat. No. G7558) reagent, and the in vitro activity of the compounds was evaluated according to the IC50 value. […]
(§2) There were 8 concentrations in total for the small molecule compounds: 300 nM, 100 nM, 30 nM, 10 nM, 3 nM, 1 nM, 0.3 nM, and 0.1 nM. • 5. Sample adding: the prepared samples to be detected at different concentrations were added to the culture plate, and two duplicate wells were set for each sample. […] Plate reading: the 96-well cell culture plate was taken out, placed in a microplate reader, and measured for the chemiluminescence using the microplate reader.
as §1, with “with” for “with the”, “using” for “using the”, “reagents,” for “reagent,”, “value. • 1.” for “value.”

[2] = test system: NCI-N87 cells; experiment: Inhibition of in vitro proliferation of tumor cells (CTG), NCI-N87; assay type: cell-based; settings: read-out: NCI-N87 IC50; Table 8, 6 days of culture
Procedure: as §1, §2
as §1, with “with” for “with the”, “using” for “using the”, “reagents,” for “reagent,”, “value. • 1.” for “value.”

[3] = target: T1, soluble full-length uPARAP; experiment: SPR (Biacore 2000), antibody captured on anti-human Fc CM5 chip, soluble full-length uPARAP as analyte, 25 C, Langmuir 1:1 global fit
Procedure: (§3) SPR analyses were performed for determination of the affinity of the obtained antibodies towards uPARAP. These analyses were performed using a Biacore 2000 instrument (Biaffin GmbH, Kassel, Germany) using a CM5 sensor chip with an anti-human Fc capture surface for antibody binding. The analysis temperature was set at 25° C. Binding of antibody onto this surface was followed by passing soluble full-length uPARAP over the chip, and the resulting association and dissociation rates were derived from the resulting binding curves. For kinetic interaction analyses, a flowrate of 30 μL/min was used and the analysis buffer consisted of 10 mM HEPES pH 7.4, 150 mM NaCl, 3 mM EDTA, 0.05% Tween 20.
(§4) LC4HC3 and LC0HC0 were analyzed by SPR as described in Materials and Methods above. In particular, the binding kinetics of LC4HC3 were compared with those of LC0HC0 (Table 5).

[4] = target: T1, soluble full-length uPARAP; experiment: SPR (Biacore 2000), ratio of KD values against LC0HC0
Procedure: as §3, §4

Molecule	IC50 [1] [nM]	IC50 [2] [nM]	Kd [3] [nM]	koff [3] [s⁻¹]	kon [3] [M⁻¹ s⁻¹]	fold higher ligand affinity than LC0HC0 [4] [fold]
CC[C@@]1(O)C(=O)OCc2c1cc1n(c2=O)Cc2c-1nc1cc(F)c(C)c3c1c2[C@@H](NC(=O)CC(C)(C)O)CC3 [P-III-21]	2.87	4.75				
CC[C@@]1(O)C(=O)OCc2c1cc1n(c2=O)Cc2c-1nc1cc(F)c(C)c3c1c2[C@@H](NC(=O)CCS)CC3 [P-III-2]	108	108				
B1			0.86	5.33e-05	62300	
B2			0.5	4.04e-05	81300	~1.7
